Source: US10421817 (BEIJING MABWORKS BIOTECH, dated 2019)

T1: human Claudin 18.1 Mutant 15 (Claudin 18.1/S42A/Q45N/Q56E) (human, UniProt P56856 1-261)
T1 chain: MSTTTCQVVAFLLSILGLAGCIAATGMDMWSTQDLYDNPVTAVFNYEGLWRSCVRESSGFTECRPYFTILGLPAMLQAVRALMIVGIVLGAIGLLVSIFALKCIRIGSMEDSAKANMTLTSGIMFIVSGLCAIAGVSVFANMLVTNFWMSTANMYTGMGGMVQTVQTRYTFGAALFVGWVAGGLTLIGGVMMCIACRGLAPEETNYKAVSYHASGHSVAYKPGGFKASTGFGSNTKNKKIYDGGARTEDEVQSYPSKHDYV

T2: human Claudin 18.1 Mutant 16 (Claudin 18.1/S42A/Q45N/E47Q/Q56E) (human, UniProt P56856 1-261)
T2 chain: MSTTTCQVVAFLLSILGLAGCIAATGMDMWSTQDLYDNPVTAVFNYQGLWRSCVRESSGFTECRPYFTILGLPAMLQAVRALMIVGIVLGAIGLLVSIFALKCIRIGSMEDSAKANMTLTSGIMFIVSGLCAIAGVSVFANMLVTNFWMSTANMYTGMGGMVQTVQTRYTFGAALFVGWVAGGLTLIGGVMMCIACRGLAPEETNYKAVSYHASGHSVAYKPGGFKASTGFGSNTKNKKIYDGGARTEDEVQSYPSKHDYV


Experiments:
[1] = target: T3, human Claudin 18.1 (human, UniProt P56856 1-261); assay: FACS on HEK293A cells expressing human Claudin 18.1 WT
T3 construct: Overexpressed on HEK293A cells by lentivirus

[2] = target: T1, human Claudin 18.1 Mutant 15 (Claudin …); assay: FACS on HEK293A cells expressing mutant 15
[3] = target: human Claudin 18.1 Mutant 14 (Q56E) (human, UniProt P56856 1-261); assay: FACS on HEK293A cells expressing mutant 14
[4] = target: T2, human Claudin 18.1 Mutant 16 (Claudin …); assay: FACS on HEK293A cells expressing mutant 16

Row | Binder | binding result [1] | binding result [2] | binding result [3] | binding result [4]
1 | 18F2-30VH0VL0 (antibody, human IgG1, kappa, V domains shown, Humanized, human IgG1/kappa constant regions) VH: QVQLVQSGAEVKKPGASVKVSCKASGYTFTSFWLNWVRQAPGQGLEWMGNIYPSTSYTVYNQKFKDRVTMTRDTSTSTVYMELSSLRSEDTAVYYCARTWRGNSFDYWGQGTTVTVSS VL: DIVMTQSPDSLAVSLGERATINCKSSQSLLNSGNQKNYVTWYQQKPGQPPKLLIYWGSTRSTGVPDRFSGSGSGTDFTLTISSLQAEDVAVYYCQNDYTYPFTFGQGTKLEIKR | no binding | binds | binds | binds
2 | 18F2-35VH0VL0 (antibody, human IgG1, kappa, V domains shown, Humanized, human IgG1/kappa constant regions) VH: QVQLVQSGAEVKKPGASVKVSCKASGYTFTSFWLNWVRQAPGQGLEWMGNIYPSTSYTIYNQKFKDRVTMTRDTSTSTVYMELSSLRSEDTAVYYCARTWRGNSFDYWGQGTTVTVSS VL: DIVMTQSPDSLAVSLGERATINCKSSQSLLNSGNQKNYLTWYQQKPGQPPKLLIYWGSTRVRGVPDRFSGSGSGTDFTLTISSLQAEDVAVYYCQNDYTYPFTFGQGTKLEIKR | no binding | binds | binds | binds
3 | 18F2-30VH7VL3 (antibody, human IgG1, kappa, V domains shown, Humanized, human IgG1/kappa constant regions) VH: QVQLVQSGAEVKKPGASVKVSCKASGYTFTSFWLNWVKQRPGQGLEWIGNIYPSTSYTVYNQKFKDKVTLTVDKSTSTAYMELSSLRSEDTAVYYCTRTWRGNSFDYWGQGTTVTVSS VL: DIVMTQSPSSLTVSLGEKATISCKSSQSLLNSGNQKNYVTWYQQKPGQPPKLLIYWGSTRSTGVPDRFSGSGSGTDFTLTISSLQAEDLAVYYCQNDYTYPFTFGSGTKLEIKR | no binding | binds | binds | binds
